Biological target: Full-length human TIGIT on CHO cells overexpressing TIGIT (human) (UniProt Q495A1)
Experiment: FACS blocking assay on TIGIT-CHO cells; competitor CF633-labeled CD155-Fc at 2 ug/ml

Chain of Full-length human TIGIT on CHO cells overexpressing TIGIT (human) (Q495A1 22-244 limits assumed): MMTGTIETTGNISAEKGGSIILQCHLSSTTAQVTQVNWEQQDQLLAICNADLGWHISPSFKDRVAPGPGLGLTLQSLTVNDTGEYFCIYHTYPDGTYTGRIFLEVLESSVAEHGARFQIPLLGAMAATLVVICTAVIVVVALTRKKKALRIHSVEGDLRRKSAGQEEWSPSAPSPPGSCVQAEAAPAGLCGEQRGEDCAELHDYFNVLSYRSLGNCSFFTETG

IC50: > 10 µM
Substance: human IgG4 antibody (hIgG4)
